“And” between values parts separate entries of the source, which are not always exact repeats. Identical values can stand only once.

This assay concerns the target heavy chains (Iα and Iβ) of inner arm dynein I1 (Chlamydomonas reinhardtii (endogenous in axonemes)) (UniProt Q9SMH3). Put plainly: quantitative densitometry of Coomassie blue-stained gels.
For the substance “IC140 of inner arm dynein I1 (natural protein)”, the most likely relative stoichiometry (relative to the HCs) (relative to the HCs) was in the range of 0.5 to 1; the relative stoichiometry (relative to the HCs) (relative to the HCs) is 0.71 and 0.53 and 0.63.

In the case of “IC97 of inner arm dynein I1 (natural protein)”, the most likely relative stoichiometry (relative to the HCs) (relative to the HCs) is 0.5 to 1; the relative stoichiometry (relative to the HCs) (relative to the HCs) was 0.95 and 0.67 and 0.56.

The substance “Chlamydomonas 8,000-M r LC (natural protein)” displayed a most likely relative stoichiometry (relative to the HCs) (relative to the HCs) of 4 to 5.5 and a relative stoichiometry (relative to the HCs) (relative to the HCs) of 4 to 5.5.

(Values after PMC2132707.)
